Test results: US20250376529A1 (Amgen, published 2025)

Target: T1, Rhesus GIPR (rhesus, UniProt F7E1R9 22-466)
T1 sequence: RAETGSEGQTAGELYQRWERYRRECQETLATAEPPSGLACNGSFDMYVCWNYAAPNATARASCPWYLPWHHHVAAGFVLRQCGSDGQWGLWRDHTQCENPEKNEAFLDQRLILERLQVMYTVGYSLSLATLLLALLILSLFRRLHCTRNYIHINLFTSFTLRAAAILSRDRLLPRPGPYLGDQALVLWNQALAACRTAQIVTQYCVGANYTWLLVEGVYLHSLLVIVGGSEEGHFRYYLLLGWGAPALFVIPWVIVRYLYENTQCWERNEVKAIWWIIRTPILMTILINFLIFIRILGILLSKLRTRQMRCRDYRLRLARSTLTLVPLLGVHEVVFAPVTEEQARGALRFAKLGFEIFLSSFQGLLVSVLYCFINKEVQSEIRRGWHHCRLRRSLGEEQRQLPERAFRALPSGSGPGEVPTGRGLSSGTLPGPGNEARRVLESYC
Assay: cell-based or functional assay

Rhesus GIPR CAMP Assay (Conc. mAb @ 60% Inhibition in nM) [nM] | Binder
0.6 | 12H11.009 (antibody, human IgG1, kappa, N297G, V domains shown) VH: QVPLVQSGAEVKKPGASVKVSCKASGYTFTGYYIHWVRQAPGQGLEWMGWISPNQGETNYAQKFQDRVTMTRDTSISTAYMELSRLRSDDTAVYYCAREATIFGMLIVPFDYWGQGTLVTVSS VL: not shown
0.71 | 12H11.010 (antibody, human IgG1, kappa, N297G, V domains shown) VH: QVPLVQSGAEVKKPGASVKVSCKASGYTFTGYYIHWVRQAPGQGLEWMGWISPNNGDTNYAQKFQDRVTMTRDTSISTAYMELSRLRSDDTAVYYCAREATIFGMLIVPFDYWGQGTLVTVSS VL: not shown
0.47 | 12H11.011 (antibody, human IgG1, kappa, N297G, V domains shown) VH: QVPLVQSGAEVKKPGASVKVSCKASGYTFTGYYIHWVRQAPGQGLEWMGWISPNQGDTNYAQKFQDRVTMTRDTSISTAYMELSRLRSDDTAVYYCAREATIFGMLIVPFDYWGQGTLVTVSS VL: not shown
1.23 | 2C2.005.013 (antibody, human IgG1, lambda, N297G, V domains shown) VH: QMQVVQSGAEVKKPGASVKVSCKASGYTFTGYYMHWVRQAPGQGLEWMGWINPNSGGTNYAQKFQGRVTMTRDTSISTAYMELSSLRSDDTAVYYCARGGDYVFGTYRPHYYYGMDVWGQGTTVTVSS VL: not shown
0.21 | 17B11.002 (antibody, human IgG1, lambda, N297G, V domains shown) VH: QMQLVQSGAEVKKPGASVKVSCKASGYTFTSYDINWVRQATGQGLEWMGWMNPNSGNTGYAQKFQGRVTMTRDTSISTAYMELSSLRSQDTAVYYCARGGDYVWGSYRPYYYYYGMDVWGQGTTVTVSS VL: QSVLTQPPSVSAAPGQKVTISCSGSSSNIGNNYVSWYEQFPGTAPKLLIYDNNKRPSGIPDRFSGSKSGTSATLGITGLQTGDEADYYCGTWDSSLSAVVFGGGTKLTVLG
7.89 | 17B11.002.008 (antibody, human IgG1, lambda, N297G, V domains shown) VH: QMQLVQSGAEVKKPGASVKVSCKASGYTFTSYDINWVRQAPGQGLEWMGWMNPNSGGTGYAQKFQGRVTMTRDTSISTAYMELSSLRSDDTAVYYCARGGDYVFGSYRPYYYYYGMDVWGQGTTVTVSS VL: QSVLTQPPSVSAAPGQKVTISCSGSSSNIGNNYVSWYQQLPGTAPKLLIYDNNKRPSGIPDRFSGSKSGTSATLAITGLQTGDEADYYCGTFESSLSAVVFGGGTKLTVLG
35.5 | 2F11.004 (antibody, human IgG1, kappa, N297G, V domains shown) VH: not shown VL: DIQMTQSPSSLSASVGDRVTITCQASQDISNYLNWYQQKPGKAPKLLIYDASNLETGVPSRFSGSGSGTDFSLTISSLQPEDIATYYCQQYDILLTFGGGTKVEIKR
68.6 | 2F11.005 (antibody, human IgG1, kappa, N297G, V domains shown) VH: not shown VL: DIQMTQSPSSLSASVGDRVTITCQASQDISNYLNWYQQKPGKAPKLLIYDASNLETGVPSRFSGSGSGTDFSFTISSLQPEDFATYYCQQYDILLTFGGGTKVEIKR
1.82 | 2F11.007 (antibody, human IgG1, kappa, N297G, V domains shown) VH: QVQLVESGGGVVQPGRSLRLSCAASGFTFSSYGMHWVRQAPGKGLEWVAVIWYDASNKYYADAVKGRFTISSDNSKNTLYLQMNSLRAEDTAVYYCARDRTIFGVVLDYWGQGTLVTVSS VL: DIQMTQSPSSLSASVGDRVTITCQASQDISNYLNWYQQKPGKAPKLLIYDASNLETGVPSRFSGSGSGTDFSFTISSLQPEDFATYYCQQYDILLTFGGGTKVEIKR

Continued, binder first:

Binder | Rhesus GIPR CAMP Assay (Conc. mAb @ 60% Inhibition in nM) [nM]
12H11.008 (antibody, human IgG1, kappa, N297G, V domains shown) VH: QVPLVQSGAEVKKPGASVKVSCKASGYTFTGYYIHWVRQAPGQGLEWMGWISPNNGETNYAQKFQDRVTMTRDTSISTAYMELSRLRSDDTAVYYCTREATIFGMLIVPFDYWGQGTLVTVSS VL: DIVMTQSPDSLSVSLGERATINCKSSQSVLSSSNNKNYLAWYQQKPGQPPNLLIYWTSTRDSGVPDRFSGSGSGTDFTLTINSLQAEDVAVYYCQQYYRTPWTFGQGTKVEIKR | 0.56
12H11.012 (antibody, human IgG1, kappa, N297G, V domains shown) VH: QVPLVQSGAEVKKPGASVKVSCKASGYTFTGYYIHWVRQAPGQGLEWMGWISPNNGETNYAQKFQDRVTMTRDTSISTAYMELSRLRSDDTAVYYCAREATIFGMLIVPFDYWGQGTLVTVSS VL: not shown | 0.57
17B11.002.001 (antibody, human IgG1, lambda, N297G, V domains shown) VH: QMQLVQSGAEVKKPGASVKVSCKASGYTFTSYDINWVRQATGQGLEWMGWMNPNSGGTGYAQKFQGRVTMTRDTSISTAYMELSSLRSQDTAVYYCARGGDYVWGSYRPYYYYYGMDVWGQGTTVTVSS VL: QSVLTQPPSVSAAPGQKVTISCSGSSSNIGNNYVSWYQQLPGTAPKLLIYDNNKRPSGIPDRFSGSKSGTSATLGITGLQTGDEADYYCGTWDSSLSAVVFGGGTKLTVLG | 0.29
17B11.002.002 (antibody, human IgG1, lambda, N297G, V domains shown) VH: QMQLVQSGAEVKKPGASVKVSCKASGYTFTSYDINWVRQATGQGLEWMGWMNPNSGNTGYAQKFQGRVTMTRDTSISTAYMELSSLRSQDTAVYYCARGGDYVWGSYRPYYYYYGMDVWGQGTTVTVSS VL: QSVLTQPPSVSAAPGQKVTISCSGSSSNIGNNYVSWYQQLPGTAPKLLIYDNNKRPSGIPDRFSGSKSGTSATLGITGLQTGDEADYYCGTWDSSLSAVVFGGGTKLTVLG | 0
17B11.002.003 (antibody, human IgG1, lambda, N297G, V domains shown) VH: QMQLVQSGAEVKKPGASVKVSCKASGYTFTSYDINWVRQATGQGLEWMGWMNPNSGGTGYAQKFQGRVTMTRDTSISTAYMELSSLRSQDTAVYYCARGGDYVWGSYRPYYYYYGMDVWGQGTTVTVSS VL: QSVLTQPPSVSAAPGQKVTISCSGSSSNIGNNYVSWYEQFPGTAPKLLIYDNNKRPSGIPDRFSGSKSGTSATLGITGLQTGDEADYYCGTWDSSLSAVVFGGGTKLTVLG | 0.08
17B11.002.004 (antibody, human IgG1, lambda, N297G, V domains shown) VH: QMQLVQSGAEVKKPGASVKVSCKASGYTFTSYDINWVRQAPGQGLEWMGWMNPNSGGTGYAQKFQGRVTMTRDTSISTAYMELSSLRSDDTAVYYCARGGDYVWGSYRPYYYYYGMDVWGQGTTVTVSS VL: QSVLTQPPSVSAAPGQKVTISCSGSSSNIGNNYVSWYQQLPGTAPKLLIYDNNKRPSGIPDRFSGSKSGTSATLAITGLQTGDEADYYCGTFESSLSAVVFGGGTKLTVLG | 0.17
17B11.002.005 (antibody, human IgG1, lambda, N297G, V domains shown) VH: QMQLVQSGAEVKKPGASVKVSCKASGYTFTSYDINWVRQATGQGLEWMGWMNPNSGGTGYAQKFQGRVTMTRDTSISTAYMELSSLRSQDTAVYYCARGGDYVWGSYRPYYYYYGMDVWGQGTTVTVSS VL: QSVLTQPPSVSAAPGQKVTISCSGSSSNIGNNYVSWYQQLPGTAPKLLIYDNNKRPSGIPDRFSGSKSGTSATLAITGLQTGDEADYYCGTWDSSLSAVVFGGGTKLTVLG | 0.08
17B11.002.006 (antibody, human IgG1, lambda, N297G, V domains shown) VH: QMQLVQSGAEVKKPGASVKVSCKASGYTFTSYDINWVRQAPGQGLEWMGWMNPNSGNTGYAQKFQGRVTMTRDTSISTAYMELSSLRSDDTAVYYCARGGDYVWGSYRPYYYYYGMDVWGQGTTVTVSS VL: QSVLTQPPSVSAAPGQKVTISCSGSSSNIGNNYVSWYQQLPGTAPKLLIYDNNKRPSGIPDRFSGSKSGTSATLAITGLQTGDEADYYCGTWDSSLSAVVFGGGTKLTVLG | 0
17B11.002.007 (antibody, human IgG1, lambda, N297G, V domains shown) VH: QMQLVQSGAEVKKPGASVKVSCKASGYTFTSYDINWVRQATGQGLEWMGWMNPNSGGTGYAQKFQGRVTMTRDTSISTAYMELSSLRSQDTAVYYCARGGDYVFGSYRPYYYYYGMDVWGQGTTVTVSS VL: QSVLTQPPSVSAAPGQKVTISCSGSSSNIGNNYVSWYQQLPGTAPKLLIYDNNKRPSGIPDRFSGSKSGTSATLGITGLQTGDEADYYCGTWDSSLSAVVFGGGTKLTVLG | 0.9
2F11.002 (antibody, human IgG1, kappa, N297G, V domains shown) VH: not shown VL: DIQMTQSPSSLSASVGDRVTITCQASQDISNYLNWYQQKPGKAPKLLIYDASNLETGVPSRFSGSGSGTDFSLTISSLQPEDFATYYCQQYDILLTFGGGTKVEIKR | 40
2F11.003 (antibody, human IgG1, kappa, N297G, V domains shown) VH: QVQLVESGGGVVQPGRSLRLSCAASGFTFSSYGMHWVRQAPGKGLEWVAVIWYDASNKYYADAVKGRFTISSDNSKNTLYLQMNSLRAEDTAVYYCARDRTIFGVVLDYWGQGTLVTVSS VL: DIQMTQSPSSLSASVGDRVTITCQASQDISNYLNWYQQKPGKAPKLLIYDASNLETGVPSRFSGSGSGTDFSLTISSLQPEDFATYYCQQYDILLTFGGGTKVEIKR | 1.79
2F11.006 (antibody, human IgG1, kappa, N297G, V domains shown) VH: QVQLVESGGGVVQPGRSLRLSCAASGFTFSSYGMHWVRQAPGKGLEWVAVIWYDASNKYYADAVKGRFTISSDNSKNTLYLQMNSLRAEDTAVYYCARDRTIFGVVLDYWGQGTLVTVSS VL: DIQMTQSPSSLSASVGDRVTITCQASQDISNYLNWYQQKPGKAPKLLIYDASNLETGVPSRFSGSGSGTDFSLTISSLQPEDIATYYCQQYDILLTFGGGTKVEIKR | 1.3
2F11.008 (antibody, human IgG1, kappa, N297G, V domains shown) VH: not shown VL: DIQMTQSPSSLSASVGDRVTITCQASQDISNYLNWYQQKPGKAPKLLIYDASNLETGVPSRFSGSGSGTDFSFTISSLQPEDIATYYCQQYDILLTFGGGTKVEIKR | 57.4
